B4: CARD-11-CARD fused to the NF-kB activation domain (pCMV-CARD-11/AD) (other, mouse)
chain: SPMLLPSGQISNQALALAPSSAPVLAQTMVPSSAMVPLAQPPAPAPVLTPGPPQSLSAPVPKSTQAGEGTLSEALLHLQFDADEDLGALLGNSTDPGVFTDLASVDNSEFQQLLNQGVSMSHSTAEPMLMEYPEAITRLVTGSQRPPDPAPTPLGTSGLPNGLSGDEDFSSIADMDFSALLSQISSEEDALWENVECNRHMLSRYINPAKLTPYLRQCKVIDEQDEDEVLNAPMLPSKINRAGRLLDILHTKGQRGYVVFLESLEFYYPELYKLVTGKE
B5: CARD-9-CARD/AD (other, mouse)
chain: SPMLLPSGQISNQALALAPSSAPVLAQTMVPSSAMVPLAQPPAPAPVLTPGPPQSLSAPVPKSTQAGEGTLSEALLHLQFDADEDLGALLGNSTDPGVFTDLASVDNSEFQQLLNQGVSMSHSTAEPMLMEYPEAITRLVTGSQRPPDPAPTPLGTSGLPNGLSGDEDFSSIADMDFSALLSQISSMSDYENDDECWNVLEGFRVTLTSVIDPSRITPYLRQCKVLNPDDEEQVLSDPNLVIRKRKVGVLLDILQRTGHKGYVAFLESLELYYPQLYKKVTGKEPARVFSMIIDAS
B9: Bcl-10-CARD/BD (other, UniProt P04386 1-147, looked up)
chain: MKLLSSIEQACDICRLKKLKCSKEKPKCAKCLKNNWECRYSPKTKRSPLTRAHLTEVESRLERLEQLFLLIFPREDLDMILKMDSLQDIKALLTGLFVQDNVNKDAVTDRLASVETDMPLTLRQHRISATSSSEESSNKGQRQLTVSMEPTAPSLTEEDLTEVKKDALENLRVYLCEKIIAERHFDHLRAKKILSREDTEEISCRTSSRKRAGKLLDYLQENPKGLDTLVESIRREKTQNFLIQKITDEVL
notes: range 1-147;range 1-104; Two-hybrid construct in pCMV-BD; also called CARD of Bcl-10; CARD of Bcl10

Key:
[1] = molecular target: Bcl-10 dominant negative deletion mutant (amino acids 1-104) (UniProt O95999); assay: cell-based or functional assay
[2] = molecular target: B4; assay: mammalian two-hybrid, 293T cells
Protocol: (§1) For the additional mammalian two-hybrid assays, 293T cells in 6-well plates (35-mm wells) were transfected with the following plasmids: 750 ng of pCMV-CARD-9/AD, 750 ng of pCMV-CARD/BD, 250 ng of pFR-Luc firefly reporter (Stratagene), and 250 ng of pRL-TK renilla reporter (Promega). For NF-?B assays, 293T cells were transfected with the following plasmids: 900 ng of pNF-kB luciferase reporter (Stratagene), 100 ng of pRL-TK renilla reporter (Promega) and 1000 ng of indicated expression plasmids. Cells were harvested 24 h after transfection, and firefly luciferase activity was determined using the Dual-Luciferase Reporter Assay System (Promega). In addition, renilla luciferase activity was determined and used to normalize transfection efficiencies.
(§2) To identify the binding partners of CARD-11, a mammalian two-hybrid analysis was performed using the CARD domains of 15 known proteins. For mammalian two-hybrid assays, 293T cells in 6-well plates (35-mm wells) were transfected with the following plasmids: 750 ng of pCMV-CARD-11/AD, 750 ng of pCMV-BD fused to individual CARD domains, 250 ng of pFR-Luc firefly reporter (Stratagene), and 250 ng of pRL-TK renilla reporter (Promega). pCMV-CARD-11 /AD and pCMV-CARD/BD plasmids were constructed by inserting individual CARD domains into pCMV-CARD/AD and pCMV-BD, respectively (Stratagene): Bcl-10 (residues 1-104), ARC (residues 1-110), RICK (residues 417-540), CARD-4 (residues 1-1 19), ASC (residues 92-195), caspase-I (residues 1-110), caspase-2 (residues 1-122), caspase-4 (residues 1-108), caspase-9 (residues 1-111), caspase-11 (residues 1-122), caspase-12 (residues 1-121), IAP-1 (residues 423-543), IAP-2 (residues 450-557), Apaf-1 (residues 1-108) and RAIDD (residues 1 -108). Cells were harvested 24 hours after transfection, and firefly luciferase activity was determined using the Dual-Luciferase Reporter Assay System (Promega). In addition, renilla luciferase activity was determined and used to normalize transfection efficiencies.

CARD-9-CARD/AD = molecular target: B5; assay: mammalian two-hybrid, 293T cells
Protocol: as §1, §2

Bcl-10-CARD/BD = molecular target: B9; assay: cell-based or functional assay
Bcl-10-CARD/AD = molecular target: T1, Bcl-10-CARD/AD (mouse, UniProt Q04207 364-549; O95999 1-104); assay: cell-based or functional assay
T1 sequence (looked up): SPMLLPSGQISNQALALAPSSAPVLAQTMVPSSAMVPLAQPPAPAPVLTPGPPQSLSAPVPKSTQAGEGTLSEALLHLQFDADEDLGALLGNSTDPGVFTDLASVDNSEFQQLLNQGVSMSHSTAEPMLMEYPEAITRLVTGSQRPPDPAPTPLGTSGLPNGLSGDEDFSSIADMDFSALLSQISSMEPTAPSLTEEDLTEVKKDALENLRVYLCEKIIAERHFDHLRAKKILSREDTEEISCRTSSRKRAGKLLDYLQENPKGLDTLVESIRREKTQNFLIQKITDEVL

Q: With “human CARD-11 (from UniProt Q9BXL7 8-1154)” as the molecule, how does the NF-κB activity (luciferase reporter) left with dominant negative Bcl-10 (times above background) [1] read?
A: Its NF-κB activity (luciferase reporter) left with dominant negative Bcl-10 (times above background) is 1.7.

Q: What about the NF-κB activity (luciferase reporter), reduction by dominant negative Bcl-10 [1] of the same molecule?
A: The NF-κB activity (luciferase reporter), reduction by dominant negative Bcl-10 was 4 fold.

Q: Which results are given for “human CARD-10 (from UniProt Q9BWT7 1-1032)”?
A: NF-κB activity (luciferase reporter) left with dominant negative Bcl-10 (times above background) [1]: 10; NF-κB activity (luciferase reporter), reduction by dominant negative Bcl-10 [1]: 35 fold

B1: caspase-12 CARD domain (residues 1-121) in pCMV-BD (other, UniProt P04386 1-147, looked up)
chain: MKLLSSIEQACDICRLKKLKCSKEKPKCAKCLKNNWECRYSPKTKRSPLTRAHLTEVESRLERLEQLFLLIFPREDLDMILKMDSLQDIKALLTGLFVQDNVNKDAVTDRLASVETDMPLTLRQHRISATSSSEESSNKGQRQLTVSMAARRTHERDPIYKIKGLAKDMLDGVFDDLVEKNVLNGDELLKIGESASFILNKAENLVENFLEKTDMAGKIFAGHIANSQEQLSLQFSNDEDDGPQKICTPSSPSESKRKVEDDEMEVNA
notes: range 1-147;range 1-121; Member of the two-hybrid CARD panel
Q: Which results are given for B1?
A: binding result [2]: no binding; binding result (CARD-9-CARD/AD): no binding

B2: CARD-4 CARD domain (residues 1-119) in pCMV-BD (other, UniProt P04386 1-147, looked up)
chain: MKLLSSIEQACDICRLKKLKCSKEKPKCAKCLKNNWECRYSPKTKRSPLTRAHLTEVESRLERLEQLFLLIFPREDLDMILKMDSLQDIKALLTGLFVQDNVNKDAVTDRLASVETDMPLTLRQHRISATSSSEESSNKGQRQLTVSMEEQGHSEMEIIPSESHPHIQLLKSNRELLVTHIRNTQCLVDNLLKNDYFSAEDAEIVCACPTQPDKVRKILDLVQSKGEEVSEFFLYLLQQLADAYVDLRPWLLEIGFSPSLLTQSKV
notes: range 1-147;range 1-119; Member of the two-hybrid CARD panel
Q: Does B2 bind [2]?
A: Result: no binding

Q: Does B2 bind (CARD-9-CARD/AD)?
A: Result: no binding

B3: Apaf-1 CARD domain (residues 1-108) in pCMV-BD (other, UniProt P04386 1-147, looked up)
chain: MKLLSSIEQACDICRLKKLKCSKEKPKCAKCLKNNWECRYSPKTKRSPLTRAHLTEVESRLERLEQLFLLIFPREDLDMILKMDSLQDIKALLTGLFVQDNVNKDAVTDRLASVETDMPLTLRQHRISATSSSEESSNKGQRQLTVSMDAKARNCLLQHREALEKDIKTSYIMDHMISDGFLTISEEEKVRNEPTQQQRAAMLIKMILKKDNDSYVSFYNALLHEGYKDLAALLHDGIPVVSSSSGKDSVSGITS
notes: range 1-147;range 1-108; Member of the two-hybrid CARD panel
Q: Does B3 bind [2]?
A: Result: no binding

Q: Does B3 bind (CARD-9-CARD/AD)?
A: Result: no binding

Q: Which “relative luciferase activity (mammalian two-hybrid reporter)” value (Bcl-10-CARD/BD) does the source give for B4 here?
A: Its value is 17 fold.

Q: With B5 as the molecule, how does the “relative luciferase activity (mammalian two-hybrid reporter)” value (Bcl-10-CARD/BD) read?
A: Its value is 250 fold.

B6: ARC CARD domain (residues 1-110) in pCMV-BD (other, UniProt P04386 1-147, looked up)
chain: MKLLSSIEQACDICRLKKLKCSKEKPKCAKCLKNNWECRYSPKTKRSPLTRAHLTEVESRLERLEQLFLLIFPREDLDMILKMDSLQDIKALLTGLFVQDNVNKDAVTDRLASVETDMPLTLRQHRISATSSSEESSNKGQRQLTVSMGNAQERPSETIDRERKRLVETLQADSGLLLDALLARGVLTGPEYEALDALPDAERRVRRLLLLVQGKGEAACQELLRCAQRTAGAPDPAWDWQHVGPGYRDRSYDPPCP
notes: range 1-147;range 1-110; Member of the two-hybrid CARD panel
Q: Does B6 bind [2]?
A: Result: no binding

Q: Does B6 bind (CARD-9-CARD/AD)?
A: Result: no binding

B7: RAIDD CARD domain (residues 1-108) in pCMV-BD (other, UniProt P04386 1-147, looked up)
chain: MKLLSSIEQACDICRLKKLKCSKEKPKCAKCLKNNWECRYSPKTKRSPLTRAHLTEVESRLERLEQLFLLIFPREDLDMILKMDSLQDIKALLTGLFVQDNVNKDAVTDRLASVETDMPLTLRQHRISATSSSEESSNKGQRQLTVSMEARDKQVLRSLRLELGAEVLVEGLVLQYLYQEGILTENHIQEINAQTTGLRKTMLLLDILPSRGPKAFDTFLDSLQEFPWVREKLKKAREEAMTDLPAGDRLTGIPS
notes: as for B3
Q: Does B7 bind [2]?
A: Result: no binding

Q: Does B7 bind (CARD-9-CARD/AD)?
A: Result: no binding

B8: RICK CARD domain (residues 417-540) in pCMV-BD (other, UniProt P04386 1-147, looked up)
chain: MKLLSSIEQACDICRLKKLKCSKEKPKCAKCLKNNWECRYSPKTKRSPLTRAHLTEVESRLERLEQLFLLIFPREDLDMILKMDSLQDIKALLTGLFVQDNVNKDAVTDRLASVETDMPLTLRQHRISATSSSEESSNKGQRQLTVSAIINPLSTAGNSERLQPGIAQQWIQSKREDIVNQMTEACLNQSLDALLSRDLIMKEDYELVSTKPTRTSKVRQLLDTTDIQGEEFAKVIVQKLKDNKQMGLQPYPEILVVSRSPSLNLLQNKSM
notes: range 1-147;range 417-540; Member of the two-hybrid CARD panel
Q: What does the source list for B8?
A: binding result [2]: no binding; binding result (CARD-9-CARD/AD): no binding

Q: Does B9 bind (CARD-9-CARD/AD)?
A: Result: binds

B10: ASC CARD domain (residues 92-195) in pCMV-BD (other, UniProt P04386 1-147, looked up)
chain: MKLLSSIEQACDICRLKKLKCSKEKPKCAKCLKNNWECRYSPKTKRSPLTRAHLTEVESRLERLEQLFLLIFPREDLDMILKMDSLQDIKALLTGLFVQDNVNKDAVTDRLASVETDMPLTLRQHRISATSSSEESSNKGQRQLTVSGSGAAPAGIQAPPQSAAKPGLHFIDQHRAALIARVTNVEWLLDALYGKVLTDEQYQAVRAEPTNPSKMRKLFSFTPAWNWTCKDLLLQALRESQSYLVEDLERS
notes: range 1-147;range 92-195; Member of the two-hybrid CARD panel
Q: What does the source list for B10?
A: binding result [2]: no binding; binding result (CARD-9-CARD/AD): no binding

B11: CARD-9-CARD/BD (other, yeast)
chain: MKLLSSIEQACDICRLKKLKCSKEKPKCAKCLKNNWECRYSPKTKRSPLTRAHLTEVESRLERLEQLFLLIFPREDLDMILKMDSLQDIKALLTGLFVQDNVNKDAVTDRLASVETDMPLTLRQHRISATSSSEESSNKGQRQLTVSMSDYENDDECWNVLEGFRVTLTSVIDPSRITPYLRQCKVLNPDDEEQVLSDPNLVIRKRKVGVLLDILQRTGHKGYVAFLESLELYYPQLYKKVTGKEPARVFSMIIDAS
Q: Which “luciferase activity (mammalian two-hybrid reporter)” value (Bcl-10-CARD/AD) does the source give for B11 here?
A: The value was 75 fold.

— patent US20030113787A1 (Takeda / Millennium, published 2003)
